# Entries after “also recorded” stand apart in the source; their conditions may differ. Square brackets hold non-standard residues; d marks the D form. Ends that are not written are not given here.
# Biological target: T1, TLR4 (Mus musculus, UniProt Q9QUK6)
# T1 sequence (Q9QUK6 26-835): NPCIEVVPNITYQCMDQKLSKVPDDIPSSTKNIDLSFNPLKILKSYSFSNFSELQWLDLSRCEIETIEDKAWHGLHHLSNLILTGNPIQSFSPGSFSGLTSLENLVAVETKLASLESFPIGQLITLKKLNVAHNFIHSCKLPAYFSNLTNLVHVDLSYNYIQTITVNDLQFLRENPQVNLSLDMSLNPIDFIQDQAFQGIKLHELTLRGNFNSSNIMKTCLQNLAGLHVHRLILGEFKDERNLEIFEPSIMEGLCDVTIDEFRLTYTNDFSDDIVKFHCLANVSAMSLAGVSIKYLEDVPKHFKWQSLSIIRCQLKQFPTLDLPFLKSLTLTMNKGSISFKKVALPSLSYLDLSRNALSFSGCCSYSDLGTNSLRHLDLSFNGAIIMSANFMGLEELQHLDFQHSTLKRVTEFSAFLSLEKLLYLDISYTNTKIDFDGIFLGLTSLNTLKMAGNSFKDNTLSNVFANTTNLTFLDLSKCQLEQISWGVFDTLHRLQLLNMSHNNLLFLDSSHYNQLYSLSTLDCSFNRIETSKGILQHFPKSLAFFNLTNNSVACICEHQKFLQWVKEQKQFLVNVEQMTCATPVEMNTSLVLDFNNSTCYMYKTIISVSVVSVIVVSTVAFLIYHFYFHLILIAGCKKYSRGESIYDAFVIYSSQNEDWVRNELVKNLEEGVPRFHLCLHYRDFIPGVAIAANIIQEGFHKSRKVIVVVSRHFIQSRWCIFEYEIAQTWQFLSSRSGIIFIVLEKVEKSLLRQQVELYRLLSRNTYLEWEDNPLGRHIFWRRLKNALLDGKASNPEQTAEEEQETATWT
# T1 sequence (Q9JHF9 19-160 partner): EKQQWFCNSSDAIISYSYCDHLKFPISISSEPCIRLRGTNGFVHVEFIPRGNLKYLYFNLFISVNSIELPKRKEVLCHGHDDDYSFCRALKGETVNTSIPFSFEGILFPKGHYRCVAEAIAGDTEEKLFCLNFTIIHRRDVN
# Assay: LPS-induced TNFα in immortalised murine macrophages, ELISA
# Assay type: cell-based
# Set-up: endogenous in cells; immortalised murine bone-marrow-derived macrophages
# Details: peptide 1, 5 or 25 μM 1 h before 10 ng/ml LPS, 6 h
# Protocol: FIGS. 14A and B are bar charts showing the comparison of the inhibitory effect of the L- and D-forms of A464 on LPS-induced TNFα in primary human and murine cells. PBMC (1×10^6 cells/ml, (A)) or immortalised murine macrophages (1.5×10^5 cells/ml, (B)) were seeded in 96 well plates 24 hours before treatment. L-form and D-form A464 peptides (with the 9R delivery peptide on the C-terminus, SEQ ID NO. 20) were added to the cells at a concentration of 1, 5 or 25 μM 1 hour before stimulating with 10 ng/ml LPS. Supernatants were collected 6 hours after stimulation and assayed for either human (A) or murine (B) TNFα production by ELISA. No peptides were added to the control wells (black bars). Data is representative of at least three experiments each performed in triplicate and is expressed as mean±s.d;
# FIGS. 15A and B are bar charts showing the effect of the D-form A464 peptide with the TAT delivery sequence on LPS induced TNFα in primary human and murine cells. PBMC (A) and immortalised murine macrophages (B) were seeded in 96 well plates 24 hours before treatment. D-form of A467 (SEQ ID NO. 37) and A464 (SEQ ID NO. 36) with the TAT delivery sequence were added to the cells at a concentration of 1, 5 or 25 μM 1 hour before stimulating with 10 ng/ml LPS. The peptides were added into the unstimulated control wells at 25 μM. Supernatants were collected 6 hours after stimulation and assayed for either human (A) or murine (B) TNFα production by ELISA. No peptides were added to the control wells (black bars). Data is representative of at least three experiments each performed in triplicate and is expressed as mean±s.d;
# FIGS. 16A and B are bar charts showing the effect of attaching 9R to the N-terminus of A464 on LPS-induced TNFα in primary human and murine cells. Immortalised murine macrophages (A) and PBMC (B) were seeded in 96 well plates 24 hours before treatment. L-form of A467 (SEQ ID NO. 39) and A464 (SEQ ID NO. 38) with the 9R-delivery sequence at the N-terminus were added to the cells at a concentration of 1, 5 or 25 μM 1 hour before stimulating with 10 ng/ml LPS. The peptides were added into the unstimulated control wells at […]. Supernatants were collected 6 hours after stimulation and assayed for either murine (A) or human (B) TNFα production by ELISA. No peptides were added to the control wells (black bars). Data is representative of at least three experiments each performed in triplicate and is expressed as mean±s.d;
# FIGS. 17A and B are bar charts showing the effect of the D-form A464 with 9R at the N-terminus on LPS-induced TNFα in primary human and murine cells. Immortalised murine macrophages (A) and PBMC (B) were seeded in 96 well plates 24 hours before treatment. D-form of A467 (SEQ ID NO. 39) and A464 (SEQ ID NO. 38) peptides with the 9R-delivery sequence at N-terminus were added to the cells at a concentration of 1, 5 or 25 μM 1 hour before stimulating with 10 ng/ml LPS. The peptides were added into the unstimulated control wells at 25 μM. Supernatants were collected 6 hours after stimulation and assayed for either murine (A) or human (B) TNFα production by ELISA. No peptides were added to the control wells (black bars). Data is representative of at least three experiments each performed in triplicate and is expressed as mean±s.d;
# FIGS. 18A and B are bar charts showing the effect of shortened A464 peptides with deletions of N- and C-terminal amino acids on LPS-induced TNFα in murine macrophages. Immortalised murine macrophages were seeded in 96 well plates (1.5×10^5 cells/ml) 24 hours before treatment. A464 peptides with a deletion of one (N-1) (SEQ ID NO. 40) or two (N-2) (SEQ ID NO. 41) amino acids from the N-terminus (A), or three (C-3) (SEQ ID NO. 42) or six (C-6) (SEQ ID NO. 43) amino acids from the C-terminus (B), were added to the cells at a concentration of 1, 5 or 25 μM 1 hour before stimulating with 10 ng/ml LPS. Peptides were added to the control wells at 25 μM. […]
row,Substance,inhibition of LPS-induced mTNFα production
1,9RN-A464 (RRRRRRRRRKYSFKLILAEY) [Peptide 9RN-A464],complete inhibition was observed at 1 μM
2,D-9RN-A464 ([dR][dR][dR][dR][dR][dR][dR][dR][dR][dK][dY][dS][dF][dK][dL][dI][dL][dA][dE][dY]) [Peptide D-9RN-A464],no inhibition at 1 μM
3,KYSFKLILAEYRRRRRRRRR [Peptide A464],significant inhibition of TLR4 by A464 (SEQ ID No. 20) at 1 μM; also recorded: complete inhibition at 1
